The values that follow are results of earlier work, collected in publication PMC4786785.

This data set concerns the target Nterm1 (UniProt position 2, ----MPIAQIH). To be noted: not stated (wild-type enzyme, described in the context of the natural tautomerase mechanism).

Take “4-oxalocrotonate tautomerase (4-OT) (Pseudomonas putida mt-2)”: the pKa result was “≈6.4”.
